Target: T1, human TLR5 expressed from p3xFlag-hTLR5 in HEK293T cells (human, UniProt O60602 21-858)
T1 construct: whole, on cells; In the reporter assays the receptor stood on transfected HEK293T cells; In the Co-IP it stood in the RIPA lysate of such cells and was pulled down with an anti-Flag antibody; also called Toll-like receptor 5; not shown: 3xFlag tag of plasmid p3xFlag-hTLR5
Experiment: Co-IP: 3xFlag-hTLR5 HEK293T lysate, anti-Flag pull-down, western blot with anti-Myc-HRP

T1 sequence (O60602 21-858): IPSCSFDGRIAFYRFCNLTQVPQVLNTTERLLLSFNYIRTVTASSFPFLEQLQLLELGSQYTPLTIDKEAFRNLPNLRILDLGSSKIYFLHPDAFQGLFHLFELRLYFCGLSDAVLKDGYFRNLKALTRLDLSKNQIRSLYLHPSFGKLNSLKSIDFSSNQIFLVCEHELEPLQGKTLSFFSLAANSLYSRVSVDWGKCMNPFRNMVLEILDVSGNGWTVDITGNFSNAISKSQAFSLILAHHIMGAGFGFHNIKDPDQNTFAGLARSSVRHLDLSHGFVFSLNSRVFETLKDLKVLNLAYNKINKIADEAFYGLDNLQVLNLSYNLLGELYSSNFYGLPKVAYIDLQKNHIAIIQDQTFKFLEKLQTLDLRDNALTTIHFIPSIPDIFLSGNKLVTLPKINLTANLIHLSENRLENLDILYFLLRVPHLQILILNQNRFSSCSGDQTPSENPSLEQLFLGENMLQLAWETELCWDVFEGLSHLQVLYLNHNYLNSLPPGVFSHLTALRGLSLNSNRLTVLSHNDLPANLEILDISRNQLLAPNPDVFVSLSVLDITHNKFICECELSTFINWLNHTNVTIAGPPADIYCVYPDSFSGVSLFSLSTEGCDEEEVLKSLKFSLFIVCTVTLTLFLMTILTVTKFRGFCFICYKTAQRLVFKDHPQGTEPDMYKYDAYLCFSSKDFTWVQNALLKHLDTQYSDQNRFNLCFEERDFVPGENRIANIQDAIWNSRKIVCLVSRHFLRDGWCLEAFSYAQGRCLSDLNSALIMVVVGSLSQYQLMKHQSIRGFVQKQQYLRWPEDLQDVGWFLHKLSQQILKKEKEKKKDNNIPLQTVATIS

B1: wild-type flagellin (eukFlaB) expressed in Expi293 cells (ligand)
chain: AVNVNTNVAAMTAQRYLNNANSAQQTSMERLSSGFKINSAKDDAAGLQISNRLNVQSRGLDVAVRNANDGISIAQTAEGAMNETTNILQRMRDLSLQSANGSNSKSERVAIQEEVTALNDELNRIAETTSFGGNKLLNGTYGTKAMQIGADNGEAVMLSLKDMRSDNVMMGGVSYQAEEGKDKNWNVAAGDNDLTIALTDSFGNEQEIEINAKAGDDIEELATYINGQTDLVKASVGEGGKLQIFAGNNKVQGEIAFSGSLAGELGLGEGKNVTVDTIDVTTVQGAQESVAIVDAALKYVDSHRAELGAFQNRFNHAISNLDNINENVNASKSRIKDTDFAKETTQLTKTQILSQASSSILAQAKQAPNSALSLLG
modifications: N-glycosylated by expression in Expi293 cells; five putative sites predicted at N83, N101, N139, N273, N330
notes: Secreted through the IgK leader of pSectag2B; also called glycosylated-eFlaB; eukaryotic-expressed wild-type flagellin; not shown: C-terminal Myc tag (and His tag implied by Ni-NTA purification) from vector pSectag2B
B1: no binding.

From patent US20260132173A1 (JOON HAENG, published 2026)
